Data as given in patent publication US20090004190A1, “Rage Fusion Proteins And Methods Of Use” (priority 2006, published 2009).
Values joined by “and” are separate entries in the source; they are usually repeats but may differ in a detail not shown here. Equal values may be shown once.

Legend:
[1] = molecular target: T1, amyloid-beta (Abeta) (Amyloid Beta (1-40)) (Homo sapiens, UniProt P05067); assay: In vitro ligand binding (ELISA) to immobilized amyloid-beta; conditions: ligand 5 micrograms per well; FIG. 7
T1 construct: Amyloid Beta (1-40) from Biosource; purchased Biosource
T1 sequence (P05067 672-711): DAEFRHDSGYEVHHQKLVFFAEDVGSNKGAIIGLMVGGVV
Method: (§1) For example, the RAGE fusion protein may be used in a binding assay to identify potential RAGE ligands. In one example embodiment of such a binding assay, a known RAGE ligand may coated onto a solid substrate (e.g., Maxisorb plates) at a concentration of about 5 micrograms per well, where each well contains a total volume of about 100 microliters (μL). The plates may be incubated at 4° C. overnight to allow the ligand to absorb. Alternatively, shorter incubation periods at higher temperature (e.g., room temperature) may be used. […] The RAGE fusion protein bound to the immobilized ligand may be detected in a variety of ways. […] The bound complex may be detected by adding the alkaline phosphatase substrate, para-nitrophenylphosphate (PNPP), and measuring conversion of PNPP to para-nitrophenol (PNP) as an increase in absorbance at 405 nm. […] In the absence of ligand (i.e., coating with only BSA) there was no increase in absorbance. […] Binding was detected by the addition of an immunodetection complex containing a monoclonal mouse anti-human IgG1 diluted 1:11,000 to a final assay concentration (FAC) of 21 ng/100 μL, a biotinylated goat anti-mouse IgG diluted 1:500, to a FAC of […], and an avidin-linked alkaline phosphatase. […]

[2] = molecular target: T2, S100b (S100) (Homo sapiens, UniProt P04271); assay: In vitro ligand binding (ELISA) to immobilized S100b; conditions: ligand 5 micrograms per well; FIG. 7
T2 sequence (P04271 1-92): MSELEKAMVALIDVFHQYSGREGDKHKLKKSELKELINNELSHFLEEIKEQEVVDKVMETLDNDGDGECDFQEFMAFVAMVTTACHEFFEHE
Method: as §1

[3] = tested on: Zucker diabetic rats, restenosis following vascular injury; assay: Diabetic rat model of restenosis (balloon injury of left common carotid artery); assay type: in vivo; conditions: for Luminal area / Medial area: IP, 21 days
Method: In these experiments, balloon injury of left common carotid artery was performed in Zucker diabetic and nondiabetic rats using standard procedure. […] A maintenance dose was delivered every other day until day 7 after injury (i.e., at day 1, 3, 5 and 7 after injury). The maintenance dose was high=1 mg/animal for one group, or low=0.3 mg/animal for the second group. To measure vascular smooth muscle cell (VSMC) proliferation, animals were sacrificed at 4 days and 21 days after injury.
For the measurement of cell proliferation, 4 day animals received intraperitoneal injection of bromodeoxyuridine (BrDdU) 50 mg/kg at 18, 12, and 2 hours before euthanasia. After sacrifice, the entire left and right carotid arteries were harvested. Specimens were stored in Histochoice for at least 24 hours before embedding. Assessment of VSMC proliferation was performed using mouse anti-BrdU monoclonal antibody. A fluorescence labeled goat anti-mouse secondary antibody was applied. The number of BrdU-positive nuclei per section were counted by two observers blinded to the treatment regimens.
The remaining rats were sacrificed at 21 days for morphometric analysis. Morphometric analyses were performed by an observer blinded to the study groups, using computerized digital microscopic planimetry software Image-Pro Plus on serial sections, ([…]) carotid arteries stained by Van Gieson staining. All data were expressed as mean±SD. Statistical analysis was performed with use of SPSS software. Continuous variables were compared using unpaired t tests. A values of P≦0.05 was considered to be statistically significant.

[4] = tested on: recurrent diabetes in NOD/LtJ mice with syngeneic islet transplants; assay: Syngeneic islet transplantation in diabetic NOD mice; assay type: in vivo, mouse; conditions: 300 ug LD + 100 ug qod ip
Source text: Spontaneous autoimmune non-obese diabetic mice (NOD/LtJ) (12-25 weeks old) served as recipients for islet cells, while young pre-diabetic NOD/LtJ mice (6-7 weeks old) served as donors in syngeneic islet transplantation. Islets for transplantation were isolated as described above in Section A (Allogeneic Islet Transplantation).
Diabetic NOD/LtJ mice received islet grafts within 2 days of the diagnosis of diabetes. 500-600 freshly isolated islets (approximately 550 islet equivalents) from donor mice were picked up with an infusion set and transplanted into the subcapular space of the right kidney.
Test compounds were administered as soon as the islets were transplanted and continued for approximately 8 weeks.
Islet graft function was monitored by serial blood glucose measurements daily for the first 2 weeks after islet transplantation, followed by every other day thereafter. Reversal of diabetes was defined as blood glucose less than 200 mg/dl on two consecutive measurements. Percentage graft loss was determined when blood glucose exceeded 250 mg/dl on two consecutive measurements.

[5] = High dose 1.0 mg/animal qod × 4, loading dose 3 mg/animal
[6] = Low dose 0.3 mg/animal qod × 4, loading dose 3 mg/animal

B1: TTP-4000: four domain RAGE fusion protein: human RAGE V and C1 domains with interdomain linkers (to residue 251) fused to human IgG1 CH2 and CH3; SEQ ID NO: 34/56 (protein, listed as Homo sapiens)
chain: QNITARIGEPLVLKCKGAPKKPPQRLEWKLNTGRTEAWKVLSPQGGGPWDSVARVLPNGSLFLPAVGIQDEGIFRCQAMNRNGKETKSNYRVRVYQIPGKPEIVDSASELTAGVPNKVGTCVSEGSYPAGTLSWHLDGKPLVPNEKGVSVKEQTRRHPETGLFTLQSELMVTPARGGDPRPTFSCSFSPGLPRHRALRTAPIQPRVWEPVPLEEVQLVVEPEGGAVAPPSVFLFPPKPKDTLMISRTPEVTCVVVDVSHEDPEVKFNWYVDGVEVHNAKTKPREEQYNSTYRVVSVLTVLHQDWLNGKEYKCKVSNKALPAPIEKTISKAKGQPREPQVYTLPPSRDELTKNQVSLTCLVKGFYPSDIAVEWESNGQPENNYKTTPPVLDSDGSFFLYSKLTVDKSRWQQGNVFSCSVMHEALHNHYTQKSLSLSPGK
binding to immobilized amyloid-beta (absorbance at 405 nm) [1]: specifically interact | binding to immobilized S100b (absorbance at 405 nm) [2]: specifically interact | vascular smooth muscle cell proliferation (BrdU-positive nuclei) ([3]; 4 days after injury, dose-responsive, FIG. 13B): significantly reduced | Luminal area [3, 5]: 0.16 ± 0.02 mm^2 | Medial area [3, 5]: 0.11 ± 0.01 mm^2 | Luminal area [3, 6]: 0.18 ± 0.04 mm^2 | Medial area [3, 6]: 0.11 ± 0.02 mm^2 | day of graft loss, Mean [4]: 39.875 days | day of graft loss, each animal ([4]; blood glucose exceeded 250 mg/dl): 38 day (2×) and 40 day and 43 day and 36 day and 45 day and 44 day and 35 day
